In publication PMC2944808:
Read-outs that look alike come from different tables or passages of the source.

What was measured:
[1] = molecular target: BMP2 (Homo sapiens) (UniProt P12643); experiment: SPR; BIAcore 2000; BMP2 immobilised, CV2 proteins perfused; apparent KD from koff/kon; 6 to 9 analyte concentrations, at least three independent experiments
[2] = molecular target: Chordin, full-length, mouse (mouse) (UniProt Q9Z0E2); experiment: SPR; BIAcore 2000; Chordin immobilised, CV2 proteins perfused; apparent KD from koff/kon; 6 to 9 analyte concentrations, at least three independent experiments
[3] = molecular target: VWC2 domain of Chordin, mouse (mouse); experiment: SPR; BIAcore 2000; VWC2 domain of Chordin immobilised, CV2 proteins perfused; apparent KD from koff/kon; 6 to 9 analyte concentrations, at least three independent experiments
[4] = molecular target: BMP2 (Homo sapiens) (UniProt P12643); conditions: cited from earlier work
[5] = molecular target: Crossveinless-2 (CV2), full-length, zebrafish (zebrafish); experiment: SPR; BIAcore 2000; CV2 immobilised on the chip (legend of Figure 1E: CV2-N), Chordin (50-600 nM) or Chordin VWC2 (10-120 nM) in solution; apparent KD

Sequence of BMP2 (Homo sapiens) (P12643 283-396): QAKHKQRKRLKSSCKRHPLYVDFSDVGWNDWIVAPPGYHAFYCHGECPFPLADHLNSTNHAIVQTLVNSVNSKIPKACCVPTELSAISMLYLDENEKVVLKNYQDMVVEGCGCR
Sequence of Chordin, full-length, mouse (mouse) (Q9Z0E2 27-948): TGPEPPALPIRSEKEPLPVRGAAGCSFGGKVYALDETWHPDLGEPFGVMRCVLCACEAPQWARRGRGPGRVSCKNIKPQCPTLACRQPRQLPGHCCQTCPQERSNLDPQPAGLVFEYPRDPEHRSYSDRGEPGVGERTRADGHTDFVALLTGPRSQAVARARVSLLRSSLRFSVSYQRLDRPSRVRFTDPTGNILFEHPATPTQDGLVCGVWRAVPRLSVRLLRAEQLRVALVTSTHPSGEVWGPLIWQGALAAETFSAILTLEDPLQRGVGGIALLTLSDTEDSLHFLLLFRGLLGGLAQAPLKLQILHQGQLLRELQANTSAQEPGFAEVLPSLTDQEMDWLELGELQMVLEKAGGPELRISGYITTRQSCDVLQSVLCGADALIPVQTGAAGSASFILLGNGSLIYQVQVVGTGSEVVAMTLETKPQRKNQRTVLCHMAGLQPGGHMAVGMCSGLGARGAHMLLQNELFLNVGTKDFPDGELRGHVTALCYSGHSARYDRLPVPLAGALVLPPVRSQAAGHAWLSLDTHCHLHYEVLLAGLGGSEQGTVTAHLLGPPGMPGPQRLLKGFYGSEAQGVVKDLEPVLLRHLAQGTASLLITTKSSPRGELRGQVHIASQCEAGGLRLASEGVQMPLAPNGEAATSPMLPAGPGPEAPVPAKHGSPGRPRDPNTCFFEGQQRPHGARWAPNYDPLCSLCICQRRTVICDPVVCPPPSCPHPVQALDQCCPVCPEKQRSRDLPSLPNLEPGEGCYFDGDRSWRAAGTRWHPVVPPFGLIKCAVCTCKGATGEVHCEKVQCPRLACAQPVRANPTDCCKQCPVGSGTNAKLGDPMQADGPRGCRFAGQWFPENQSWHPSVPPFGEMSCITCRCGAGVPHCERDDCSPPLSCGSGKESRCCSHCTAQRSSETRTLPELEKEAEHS
Sequence of Chordin (Q9H2X0 27-955): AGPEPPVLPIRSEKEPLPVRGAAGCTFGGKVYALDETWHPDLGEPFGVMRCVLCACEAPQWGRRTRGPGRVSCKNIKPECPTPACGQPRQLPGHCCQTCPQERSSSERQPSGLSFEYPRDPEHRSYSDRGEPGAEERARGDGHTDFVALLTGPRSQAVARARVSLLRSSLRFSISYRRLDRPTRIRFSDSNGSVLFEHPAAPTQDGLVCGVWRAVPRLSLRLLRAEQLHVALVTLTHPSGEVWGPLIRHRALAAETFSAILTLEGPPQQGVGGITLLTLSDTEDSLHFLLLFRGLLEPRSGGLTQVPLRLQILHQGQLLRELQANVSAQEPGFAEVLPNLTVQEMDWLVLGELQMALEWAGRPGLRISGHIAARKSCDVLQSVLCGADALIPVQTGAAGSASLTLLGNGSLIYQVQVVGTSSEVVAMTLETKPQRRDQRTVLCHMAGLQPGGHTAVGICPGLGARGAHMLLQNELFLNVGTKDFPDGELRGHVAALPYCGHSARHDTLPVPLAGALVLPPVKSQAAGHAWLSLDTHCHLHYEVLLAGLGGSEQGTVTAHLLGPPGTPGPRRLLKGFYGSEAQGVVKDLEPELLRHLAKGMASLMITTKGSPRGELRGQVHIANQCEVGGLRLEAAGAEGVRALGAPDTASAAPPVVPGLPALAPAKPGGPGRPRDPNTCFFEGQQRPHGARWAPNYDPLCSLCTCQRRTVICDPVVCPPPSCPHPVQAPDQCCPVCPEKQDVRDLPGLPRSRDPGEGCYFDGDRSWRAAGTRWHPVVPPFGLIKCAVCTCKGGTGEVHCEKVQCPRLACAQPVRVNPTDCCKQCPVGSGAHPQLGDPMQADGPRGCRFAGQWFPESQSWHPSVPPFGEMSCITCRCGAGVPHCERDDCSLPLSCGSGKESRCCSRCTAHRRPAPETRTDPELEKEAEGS

| Kd [1] | Kd [2] | Kd [3] | Kd [5] | Substance | Kd [4] |
| --- | --- | --- | --- | --- | --- |
|  | 0.188 µM | 0.17 µM |  | CV2 ΔClip-SD1 (domain or fragment) |  |
| 0.022 µM |  |  |  | CV2 ΔSD2 (domain or fragment) |  |
| 0.024 µM |  |  |  | CV2-VWC1-3 (domain or fragment) |  |
|  |  |  | 0.005 µM | VWC2 domain of Chordin, mouse (domain or fragment) |  |

More lines, now with the values behind:

| Substance | Kd [1] | Kd [2] | Kd [3] | Kd [5] | Kd [4] |
| --- | --- | --- | --- | --- | --- |
| CV2 T5P/I21R (natural protein) | 18 µM | 0.183 µM | 0.172 µM |  |  |
| CV2-VWC1-5 (CV2-N) (domain or fragment) | 0.025 µM | 0.17 µM | 0.14 µM |  |  |
| Chordin (from UniProt Q9H2X0) |  |  |  |  | 0.02 µM |
| Crossveinless-2 (CV2), full-length, zebrafish (natural protein) | 0.022 µM | 0.175 µM | 0.15 µM |  |  |
